{
  "source": "the nanobody polyreactivity screen of Harvey et al. (2022)",
  "data": [
    {"test": "yeast display, Sf9 membrane polyspecificity reagent, FACS + sequencing; frameworks hold sequencing errors", "procedure,_shortened": "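Synthetic nanobody libraries on Saccharomyces cerevisiae BJ5465 were galactose-induced for 36–48 hours, stained 1 hour at 4 °C with 10% biotinylated, detergent-solubilized Sf9 membrane reagent and enriched on streptavidin microbeads. FACS then separated cells into low and high (top ~1%) gates by anti-HA (expression) and streptavidin (reagent binding) fluorescence. Genes were colony-PCR amplified, MiSeq 2 × 250 sequenced and CDR-length filtered. A clone's polyreactivity label is that of its gate of origin.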", "values": [
      {"sequence": "QVQLVESGGGVVQAGGSLRLSCAASGRTFPLYAMGWYRQAPGKERELVAAIRTGGSTNYADSVKGRFTISRDNAKNTVYLQMNSLKPEDTAVYYCAAVQRTDRSAHYSWGQGTQVTVSS", "polyreactivity (PSR sort gate)": "low polyreactivity"},
      {"sequence": "QVQIVESGGGLVQAGGRLSLTCAASGRIFTAYAMRWYRPAPGKEREFVAAISARGGSTNYADSVKGRFTISRDNAMNTVYLQMNSLKPEDTAVYYCHARFVQWYWIGNVIHIDNDYWGQGSQVTVSS", "polyreactivity (PSR sort gate)": "low polyreactivity"},
      {"sequence": "QVQLVESGGGLVQAGGSLRLSCAASGSIFTRYAMGWYRQAPGKERELVAAISSGGSTYYADSVKGRFTISRDNAKNTVYLQMNSLKPEDTAVYYCAKDSGSYRVGIYEPFPYGYWGQGTQVTVSS", "polyreactivity (PSR sort gate)": "low polyreactivity"},
      {"sequence": "QVQLVESGGGLVQAGGSLRLSCAASGFTFARYTMGWYRQAPGKERELVAAISSRGSSTYYADSVKGRFTISRDNAKNTVFLQMNSLKPEDTAVYYCAASPYDTQTLDYDYWGQGTQVTVSS", "polyreactivity (PSR sort gate)": "high polyreactivity"},
      {"sequence": "QVQLVESRGGLVQAGGSLRLSCAASGSIFAIYTMGWYRQAPGKERELVAAITGNGGRTYYADSVKGRFTISRDNAKNTVYLQMNSLKPEDTAVYYCAVVGYHRDYDYWGQGTQVTVSS", "polyreactivity (PSR sort gate)": "low polyreactivity"},
      {"sequence": "QEQLVESGGGLDQAGGSLRLSCAASGSTFSGYALAWYRQAPGKERELVAAISWRGVRTYYADSVKGRFSISRDNAKNRVYLQMNSLKPEDNAVYYCAAVGYITKEFYWGQGTKVTVSS", "polyreactivity (PSR sort gate)": "high polyreactivity"},
      {"sequence": "QVQLVESGGGLVQAGGSLRLSCAASGSTFPGNAMGWYRQAPGKEREFVAVISRSGGGTYYADSVKGRFTISRDNAKNTVYLQMNSLKPEDTAVYYCAARRGLWGYGTGNGYWGQGTQVTVSS", "polyreactivity (PSR sort gate)": "low polyreactivity"},
      {"sequence": "QVQLVESGGGLVQAGGSLRLSCAASGLTFSDYAIGWYRQAPGKEREFVAAITRNGGSTRYADSVKGRFTFSRDNAKNTVYLKMNRLKPEDTAVYYCATDVGFGRKQRPHRPGYGYWGQGTQVTVSS", "polyreactivity (PSR sort gate)": "low polyreactivity"},
      {"sequence": "QVQLVESGGGLLQAGGSLRLSCAASGITFRFYAMGGYRQAPGKEREFVAAISCRGGRTYYADSVKGRFTISRDNAKNTVYIQMNSLKPEDTAVYYCAADFYYRTVATVTSVARYDYWGQGTQVTVSS", "polyreactivity (PSR sort gate)": "high polyreactivity"},
      {"sequence": "QVHLVESGGGLVQAGGSLRLSCAASGSNYSYYGMGWYRQAPGKERELVAAITDGDGTNYADSVKGRFTISRDNAKNTVYLQMNSLIPEDTAVYYCNRDFWYGVSPGREFYLYDYWGQGTLVTVSS", "polyreactivity (PSR sort gate)": "low polyreactivity"},
      {"sequence": "QVQLVESGGGLVQAGGSLRLSCAASGSTFAYNAMGCYRQAPGKERELVAAISFTGDSTYYADSVKGRFTISRDNAKYTVYLQMNSLKPEDNRSSPVLSYDYWGQGTQVTVSS", "polyreactivity (PSR sort gate)": "low polyreactivity"},
      {"sequence": "QVHLVESGGGLVQAGGSLRLSSAASGSTFPVYAMGWYRQAPGKERELVASISSGGSTYYADSVQGRFTISRDNAKNSVYFQKNSLKPEDTAVYYCAKDPWVDSFVIYDDWGQGTEVTVSS", "polyreactivity (PSR sort gate)": "low polyreactivity"},
      {"sequence": "QVQLVESGGGLVQAGGSLRLSCAASGSTFSVYAMGWYRQAPGKERELVAAITWRGGTTYYADSVKGRFTISRDYAKNTVYLQMNSLKPEDTAVYYCNADWWRTLESDYWGQGTQVTVSS", "polyreactivity (PSR sort gate)": "low polyreactivity"},
      {"sequence": "QVQLVESGGGLVQAGGSLRLSCAASGRIFLWYAMGWYRQAPGKERELVAGISSGASTYYADSVKGRFTISRDNAKNTVYLQMNSLKPEDTAVYYCAAPYYRLTGWSRYDYWGQGTQVTVSS", "polyreactivity (PSR sort gate)": "high polyreactivity"},
      {"sequence": "PLQLVESGGGLVQAGGSLRLSCAASGRTFRATTMGWYRQAPGKERELVAAISHSGGSTYYADSVKGRFTISRDNAKNTVYLQMYSLKPEDTAVYYCATDGGSYSWASPRVDYWGQGTQVTVSS", "polyreactivity (PSR sort gate)": "low polyreactivity"},
      {"sequence": "QVQLVESGGGLVQAGGSLRLSCAASGFIITSNAMGWYRQAPGKERELVAAITWSGGRTYYADSVKGRFTISRDNAKNTVYLQMNSLKPEDTAVYYCAAGYYKGFTLVRVIFDYWGHGTQVTVSS", "polyreactivity (PSR sort gate)": "low polyreactivity"},
      {"sequence": "QVHLVESGGGLVQAGGSLRLSCAAYGRIFPLYTMGWYRQAPGKEREFVAAISRTGGRTYYADSVKGRFTISRDNAKNTVYLQMNSLKPEDTAVYYCAAPYFGKRQIREYYWGQGTQVTVSS", "polyreactivity (PSR sort gate)": "high polyreactivity"},
      {"sequence": "QVQLVESGGGLVQAGGSLRISCAASGITFTGYAMGWYRQAPGKEKELVAAIRGGGNTYYADSVKGRFTISRDNAKNTVYLQMNSLKPEDTAVYYCATSYASYTYWYDYWGQGTQVTVSS", "polyreactivity (PSR sort gate)": "low polyreactivity"},
      {"sequence": "QVQLVESGGGLVQAGGSLRLSCAASGSIFFWYTMGWYRQAPGKERELVATITGSGSSTTYADSVKGRFTISRDNAKNTVYFQMNSLKPEDTAVYYCAAADIIDHSFPYDYWGQGTQVTVSS", "polyreactivity (PSR sort gate)": "low polyreactivity"},
      {"sequence": "QVQLVESGGGLVQAGGSLRLICAASGRILYKNSMGWYRQAPAKEMQLVAAISSTAGYTYYADSLKGRFTISRDNAKNTVYLQMNSLKPEDTAVYYCAARRSGVKRRYDYWGQGTQVTVSS", "polyreactivity (PSR sort gate)": "low polyreactivity"},
      {"sequence": "QVQLVESVGGLVQAGGSLRLSCAASGSIFYPNAMGLYRQAPGKERELVAAISSSGGTNYADSVKGRFTISRDNAKNTVYLQMNSLKPEDTAVYYCNARDKVRYRYSRMDYWGQGTQVTVSS", "polyreactivity (PSR sort gate)": "low polyreactivity"},
      {"sequence": "QVQLVESGGCLVQAGGSLRLSCAASGSIFSSYQMGWYRQAPGKQRELVEAISSGGSTNYADSVKGRFTISRDNAKNTVYLQMHRLKPEDTAVYYCNVDLFNWGGDSTGYDYWGQGTQVTVSS", "polyreactivity (PSR sort gate)": "low polyreactivity"},
      {"sequence": "QVQLVESGGGLVQAGGSLRLSCAASGSIFRWYAMGWYRQAPGKERELVAGISSTGGSTYYADSVKGRFTISRDNAKNTVYLQMNSLKPEDTAVLYCAVVSYPSAFRRYNYWGQGTQVTVSS", "polyreactivity (PSR sort gate)": "high polyreactivity"},
      {"sequence": "QVQLVESGGGLVQAGGSLRLSCAASGRIFNKNAMGWYRQAPGKERELVAAITYSGGSTYYADSVKGRFTISRDNAKNTVYLQMNSLKPEDTAVYYCARDLYYVYSFAPYRYEYWGQGTQVTVSS", "polyreactivity (PSR sort gate)": "low polyreactivity"},
      {"sequence": "QVQLVSSGGRLVQSGGSLRLSCAASGRTFYPYAMGWYRQAPGKERELVAGIRNSGTSTYYADSVKGRFTISRDNAKNTVYLQMNSLKPEVTAVYYCNARGYRNRGYGYDSWGQGTQVTVSS", "polyreactivity (PSR sort gate)": "high polyreactivity"},
      {"sequence": "QVQLVESGGGLVQAGGSLRLSCADSGRTFTKYAMGRYRQAPGKERELVAAISRSGGSTYYADSVKGRFTISRVNAKNTVYLQMNSLKPEDTAVYYCAARRYRASSRGYGYWGQGTQVTVSS", "polyreactivity (PSR sort gate)": "high polyreactivity"},
      {"sequence": "QVQLVESWAGVVQAGGSLRLSCAASGSIFRNAMGWYRQAPGKERELVAGIRWSYGSTNYADSVKGRFTISRDNAKNSVYLQMNSLKPEDTAVYYCAKGAYYARRMYFWGQGTQVTVSS", "polyreactivity (PSR sort gate)": "low polyreactivity"},
      {"sequence": "QVQLVESGGGLLQAGGSLRLSCAASGSTFDYYVMGWYRQAPGKERELVAAISHNAGSTYYADSVKGRFTISRDNAKNTVYLQMNSLKPEDTAVYYCAAPDYRNGVRYPLDYWGQGTQVTVSS", "polyreactivity (PSR sort gate)": "low polyreactivity"},
      {"sequence": "QVQLVESGGGLVQAGGSLRLSCAASGRLFKIYAMGWYRQAPGKERELVATISSGGRTNYADSVKGRFTISRDNAKNTVYLQMNSLKPEDTAVYYCNAGARVLYETESFDYWGQGIQVTVSS", "polyreactivity (PSR sort gate)": "low polyreactivity"},
      {"sequence": "QVQLVESGGGLVQAGGSLRLSCAASGITFYYYAMGWYRQAPGKERELVASISSVGSTYYADSVKGRFTISRDNAKNTVYLQMNSLKPEDTAVYYCAAVDYVRYYPDEFDYWGQGTQVTVSS", "polyreactivity (PSR sort gate)": "low polyreactivity"},
      {"sequence": "QVQLVESGGGLVQAGGSLRLSCAASGSIIVRNAMGWYRQAPGKERELVAAISKSGGSTYYADSVKGRFTISRDNAKNTVYLQMNSLKPEDTAVYYCAVYPRSTLRTFQRDYWGQGTQVTVSS", "polyreactivity (PSR sort gate)": "high polyreactivity"}
    ]}
  ]
}
